# In PMC4666614, “Identification of New Regions in HIV-1 gp120 Variable 2 and 3 Loops that Bind to α4β7 Integrin Receptor” (PLoS ONE, 2015):
# B1: Ovalbumin: nonspecific protein control (protein)
# chain: MGSIGAASMEFCFDVFKELKVHHANENIFYCPIAIMSALAMVYLGAKDSTRTQINKVVRFDKLPGFGDSIEAQCGTSVNVHSSLRDILNQITKPNDVYSFSLASRLYAEERYPILPEYLQCVKELYRGGLEPINFQTAADQARELINSWVESQTNGIIRNVLQPSSVDSQTAMVLVNAIVFKGLWEKAFKDEDTQAMPFRVTEQESKPVQMMYQIGLFRVASMASEKMKILELPFASGTMSMLVLLPDEVSGLEQLESIINFEKLTEWTSSNVMEERKIKVYLPRMKMEEKYNLTSVLMAMGITDVFSSSANLSGISSAESLKISQAVHAAHAEINEAGREVVGSAEAGVDAASVSEEFRADHPFLFCIKHIATNAVLFFGRCVSP
# System: α4β7 integrin binding to MAdCAM-1
# Assay: Competitive inhibition of binding of α4β7 on RPMI8866 cells to MAdCAM-1 by peptides, viruses, IMCs and controls
# Assay type: cell-based, human
# Conditions: for % Inhibition ± SD of α4β7 integrin binding to MAdCAM-1: average of 3–7 experiments in triplicate
# Description: 96-well plates were coated with MAdCAM-1 as described above. RPMI8866 cells (2 X 10^6/ ml) were incubated with cyclic V2 or V3 MN, TH023, or acute subtype C (C-6980v0c22) peptides or with scrambled flanking region (SFL) or the mid region (SMR) TH023 V2 or with a completely scrambled (SCR) TH023 peptide (10 μg/ml) for 45 minutes at 37°C before being added in triplicate to the MAdCAM-1 coated plates for 1 hour at 37°C. In concurrent experiments, RMI8866 cells were incubated with purified primary HIV-1 (0.75 ng to 6 ng/well p24) subtype B (SF162, US-1, JRFL), subtype CRF01_AE viruses (92TH023), IMCs (0.75 ng to 1000 ng/well p24 in each case) containing acute or chronic envelopes (Acute CRF01_AE (703357) [GenBank:JN944658], C (C-6980v0c22) [GenBank:HM215344], A(851891); Chronic CRF01_AE (CM235.2) [AF259954.1], C (ET02220LucR) [U46016]) or with pSG3Δenv. pSG3Δenv contained a four-nucleotide insertion mutation (CTAG) in Env, leading to a translation stop codon after amino acid residue 142. The pSG3Δenv clone is routinely used for generating Env pseudotyped infectious virions.
# Viruses were tested in triplicate in two independent experiments. In additional experiments, mannose, HIV-1 p24, and ovalbumin (0.2–10 μg/ml) were used in the competition assay as nonspecific protein controls (data in Table 2; 3–7 experiments performed in triplicate), whereas, an anti-RSV mAb, Synagis® was used as a nonspecific antibody control. Synagis® was incubated for 45 minutes with either MAdCAM-1 or with RPMI8866 cells and then placed in the assay system. The remainder of the assay was similar to that described above. Significance was determined by paired Student’s t test.
molecule,measurement,setting,value
B1,% Inhibition ± SD of α4β7 integrin binding to MAdCAM-1,0.2 μg/ml,7.2 ± 12.5%
same,% Inhibition ± SD of α4β7 integrin binding to MAdCAM-1,1.0 μg/ml,2.0 ± 3.5%
same,% Inhibition ± SD of α4β7 integrin binding to MAdCAM-1,5 μg/ml,13.6 ± 11.8%
same,% Inhibition of α4β7 integrin binding to MAdCAM-1,"10 μg/ml, average of triplicate determinations from a single experiment",18%
same,Inhibition of α4β7 integrin binding to MAdCAM-1 by nonspecific controls (in words),0.2–10 μg/ml,no significant inhibition
